From patent publication US8110365B2, “Compositions and methods for detecting and treating renal injury and inflammation” (Rhode Island Hospital, priority 2006, dated 2012)
Entries after “also recorded” stand apart in the source; their conditions may differ.

Key:
[1] = tested on: endothelial cells; experiment: Monocyte adhesion to TNF-α-activated endothelial monolayers; assay type: cell-based, human
[2] = target: T1, GSK3b and NFkB p65 (Homo sapiens, UniProt P49841); experiment: Co-immunoprecipitation of GSK3b and NFkB p65 in HKC cells; assay type: cell-based
T1 construct: whole cell lysates were subjected to immunoprecipitation by anti-GSK3b or anti-p65 antibody; endogenous in cells; host or cells: HKC-8
T1 sequence (P49841 whole entry): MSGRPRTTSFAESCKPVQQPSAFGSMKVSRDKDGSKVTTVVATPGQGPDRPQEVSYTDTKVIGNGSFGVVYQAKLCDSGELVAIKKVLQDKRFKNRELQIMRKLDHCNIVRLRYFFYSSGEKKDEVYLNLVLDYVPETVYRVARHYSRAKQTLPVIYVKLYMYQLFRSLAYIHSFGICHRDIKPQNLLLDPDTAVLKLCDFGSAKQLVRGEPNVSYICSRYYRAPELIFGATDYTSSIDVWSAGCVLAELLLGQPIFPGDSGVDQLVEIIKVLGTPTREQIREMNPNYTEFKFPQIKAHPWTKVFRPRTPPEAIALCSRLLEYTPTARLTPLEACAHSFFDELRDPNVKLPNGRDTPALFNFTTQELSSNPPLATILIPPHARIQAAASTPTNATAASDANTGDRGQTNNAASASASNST
Description: (§1) Immunoprecipitation was carried out by using an established method as described previously. Briefly, cells were washed with ice cold PBS and then lysed with RIPA buffer. After preclearing with normal IgG, cell lysates with equal amount of total protein (0.5 mg of protein) were incubated overnight at 4° C. with 4 μg specific agarose-conjugated antibodies. The precipitated complexes were collected, washed, and separated on SDS-polyacrylamide gels and blotted with various antibodies as indicated.

[3] = target: T2, GSK3b and NFkB p65 (Homo sapiens, UniProt P49841, S9A); experiment: as above; assay type: cell-based; settings: HKC cells expressing S9A, TNF-a stimulation
T2 construct: endogenous in cells; host or cells: HKC-8
T2 sequence (P49841 whole entry S9A): as the sequence (P49841 whole entry) above, with S9A counted along it
Description: as §1

[4] = tested on: NF-κB; experiment: NF-κB luciferase reporter gene assay in endothelial cells; assay type: cell-based, human; settings: 24 h
Description: (§2) To explore the role of GSK3b in HGF suppression of inflammation, we examined the effect of HGF on NF-κB activation in endothelial cells (FIG. 8A˜C) and TEC (FIG. 8D). […] (FIG. 8A). To determine whether HGF modulation of NF-κB transcriptional activity alters target gene (E-selectin) levels, DNA affinity precipitation assay was carried out at 4 h after treatment. Proteins in cell lysates were pulled down by biotin labeled oligonucleotides with the sequence of the E-selectin promoter region spanning the κB elements. […] To further examine the effect of HGF on NF-κB binding to the E-selectin gene in vivo, chromatin immunoprecipitation (ChIP) was applied at 4 h after treatments (FIG. 8C).

[5] = tested on: NF-κB p65 binding to E-selectin promoter; experiment: DNA affinity precipitation and ChIP of NF-κB p65 at the E-selectin promoter in HUVEC; assay type: cell-based, human; settings: 4 h after treatment
Description: as §2

[6] = tested on: NF-κB; experiment: Gel shift assay of HKC nuclear extract with NF-κB consensus sequence; assay type: cell-based, human; settings: HKC cells, 4 h
[7] = tested on: endothelial E-selectin; experiment: Acute inflammation induced by bolus injection of TNF-α in vivo; settings: infusion of exogenous HGF
[8] = tested on: MCP-1 and RANTES; experiment: Chemokine expression in immortalized rat proximal tubular cells (IRPTC); assay type: cell-based
[9] = tested on: phosphatidylinositol 3-kinase (PI3K)-Akt; experiment: PI3K-Akt activation in HUVEC; assay type: cell-based, human
[10] = tested on: PI3K-Akt; experiment: PI3K-Akt activation in HKC / TEC; assay type: cell-based, human
[11] = target: T3, GSK3b (Rattus norvegicus, UniProt P18266); experiment: Renal GSK3b expression in the kidney; assay type: in vivo
T3 construct: from tissue; host or cells: rat kidney (homogenate)
T3 sequence (P18266 whole entry): as the sequence (P49841 whole entry) above, with V240M, T390P, T392A, A400T, T402A counted along it
Description: In certain embodiments, measurement of GSK level and activity in tissue samples is carried out as follows. Total expression of GSK3b, is measured by western immunoblot in kidney homogenates using a commercially available mouse monoclonal antibody against rat GSK3b (Santa Cruz Biotechology). Densitometric analysis of immunoblot bands is used to compare protein abundance of GSK3b in remnant kidneys and controls at each time point.

[12] = tested on: NF-kB and IkB; experiment: NF-kB and IkB phosphorylation and IkB degradation in endothelial cells; assay type: cell-based
Description: In certain embodiments, NF-kB p65 phosphorylation is assessed as follows. Cell lysates with equal amounts of total protein are immunoblotted for phosphorylated NF-kB p65 or total p65. Anti-phosphorylated NF-kB p65 antibody is commercially available, e.g., from Cell Signaling, MA. Densitometric results of phosphorylated NF-kB p65 and total p65 bands as well as the ratio of pp65/p65 are compared between different transfections at different time points.
In certain embodiments, IkB phosphorylation and degradation is evaluated as follows. Cell lysates with equal amounts of total protein are immunoblotted for phosphorylated IkBa (anti-phosphorylated IkBa antibody is available from Cell Signaling. MA) or total IkBa. Densitometric results of phosphorylated IkBa and total IkBa bands are compared across the different treatments and time points.

[13] = target: T4, GSK3b (Homo sapiens, UniProt P49841); experiment: Inhibitory phosphorylation of GSK3b in HUVEC (immunoblot); assay type: cell-based; parameters: endogenous in cells; settings: LiCl 20 mM, HGF 100 ng/ml
T4 sequence (P49841 whole entry): as the sequence (P49841 whole entry) above

[14] = target: T4, GSK3b; experiment: Inhibitory phosphorylation of GSK3b in HKC cells (immunoblot); assay type: cell-based; parameters: endogenous in cells; host or cells: HKC-8
Description: Human proximal TEC (HKC-8) (courtesy of Dr. L. Racusen of John Hopkins University, Baltimore, Md.) were maintained in Dulbecco's modified Eagle's medium (DMEM)/F12 supplemented with 5% fetal bovine serum (FBS). Cells were plated at approximately 70% confluence in the media containing 5% FBS for 24 h and then underwent serum starvation for another 24 h. Human recombinant HGF and human recombinant TNF-α (R&D systems, Minneapolis, Minn.) were added to the culture with fresh serum-free medium at a final concentration of 20 ng/ml and 2 ng/ml respectively, or otherwise as indicated. Cell viability was assessed by Trypan blue exclusion. At different time points, cells and conditioned media were harvested for further investigation.
After different treatments, HKC cells were washed with PBS and lysed with RIPA buffer supplemented with protease inhibitors [1% Nonidet P-40, 0.1% SDS, 100 ug/ml phenylmethysulfonyl fluoride (PMSF), 0.5% sodium deoxycholate, ImM sodium orthovanadate, 2 ug/ml aprotin, 2 ug/ml leupeptin, 5mM EDTA in PBS]. Protein concentration was determined by using a bicinchoninic acid protein assay kit (Sigma). All samples with equal amounts of total protein (50 ug/ml) were fractionated by 7.5˜15% SDS-polyacrylamide gels under reducing condition and analyzed by western immunoblot as described previously (30). The antibodies against p-GSK3b, p-NFkB p65, p-IkBa were purchased from Cell Signaling Technology (Beverly, Mass.) and those for GSK3b, hemagglutin were from Santa Cruz Biotechnology (Santa Cruz, Calif.).

TNF-a induced co-precipitation of phosphorylated p65 (Ser468) with GSK3b ([2]; HKC cells, immunoprecipitation by anti-GSK3b): abrogated TNFa induced co-precipitation | renal GSK3b expression [11]: markedly decreased GSK3b expression
Substance: HGF: Human recombinant HGF (R&D systems); induces inhibitory phosphorylation of GSK3b
monocytic adhesion to endothelial cells [1]: abrogated monocyte adhesion to TNF-α-activated endothelial monolayers; also recorded: inhibited E-selectin mediated monocytic adhesion to endothelial cells | TNF-a induced GSK3b to p65 interaction ([2]; HKC cells, immunoprecipitation by anti-p65): remarkably overridden by HGF; also recorded: suppressive effect on physical interaction between GSK3b and RelA/p65 | co-precipitation of HA-tagged GSK3b with p65 / phosphorylated p65(S468) ([2]; WT transfected HKC cells, TNF-a stimulation): markedly reduced HA co-precipitation with p65 in the WT transfected cells; also recorded: significantly attenuated by HGF in WT transfected cells | co-precipitation of HA-tagged GSK3b with p65 / phosphorylated p65(S468) [3]: considerably abrogated in HKC cells expressing S9A; also recorded: substantially blunted in cells expressing S9A; also recorded: overridden in cells expression the mutant uninhibitable GSK3b | TNF-α induced NF-κB reporter gene (transcription) activity [4]: suppressed TNF-a induced NF-kB reporter gene activity; also recorded: significantly reduced TNF-α induced NF-κB transcription activity; also recorded: blunts NF-kB activation | TNF-α induced NF-κB binding to E-selectin promoter / gene [5]: counteracted NF-kB interaction with kB elements at the E-selectin gene level; also recorded: significantly blunted TNF-α induced NF-κB binding to E-selectin promoter sequence; also recorded: prevents NF-κB mediated transcription of E-selectin; also recorded: blunts NF-kB activation and its target E-selectin gene | TNF-α induced binding of nuclear extract to NF-κB consensus oligonucleotides [6]: markedly blunted by HGF; also recorded: attenuated by HGF | endothelial expression of E-selectin [7]: reduced endothelial expression of E-selectin induced by bolus injection of TNF-α | sequestration of circulating macrophages in the kidney [7]: less sequestration of circulating macrophages in the kidney | basal and TNF-α induced expression of MCP-1 and RANTES [8]: suppressed basal and TNF-α induced expression of MCP-1 and RANTES | PI3K-Akt activation [9]: activated phosphatidylinositol 3-kinase (PI3K)-Akt | PI3K-Akt activation [10]: elicited PI3K-Akt activation; also recorded: activates PI3K-Akt in TEC | NF-kB and IkB phosphorylation and IkB degradation [12]: inhibition of NF-kB and IkB phosphorylation and IkB degradation | inhibitory phosphorylation of GSK3b at serine 9 [13]: inhibited its downstream transducer, GSK-3b, by phosphorylation at serine-9; also recorded: inactivates GSK3b by inhibitory phosphorylation at ser-9; also recorded: induces inhibitory phosphorylation of GSK3b | inhibitory phosphorylation of GSK3b (S9) [14]: inhibited GSK3, by phosphorylation at Ser-9; also recorded: induce GSK3b phosphorylation at Ser9; also recorded: induces inhibitory phosphorylation of GSK3b at S9
